Ends that are not written are not given here. Peptide text beside a SMILES is read from it. * marks the point of attachment. X1 = N[C@H]1CS[As]2SC[C@H](NC1=O)C(=O)N1CCC[C@H]1C(=O)NCC(=O)N[C@H]1CS[As](SC[C@@H](C(=O)*)NC1=O)c1c(O)ccc3c1Oc1c(ccc(O)c12)C31OC(=O)c2ccccc21
T1: GST–KLHL3^290–587 R528H (human, UniProt Q9UH77-1 290-587, R528H)
T1 construct: KLHL3, human, NM_017415.2, Kelch domain, residues 290-587, with the Gordon's syndrome mutation R528H; Mutation found in patients with Gordon's syndrome; also called KLHL3 R528H; source: E. coli BL21, purified (glutathione–Sepharose); not shown: GST, N-terminal, kept
T1 sequence (looked up): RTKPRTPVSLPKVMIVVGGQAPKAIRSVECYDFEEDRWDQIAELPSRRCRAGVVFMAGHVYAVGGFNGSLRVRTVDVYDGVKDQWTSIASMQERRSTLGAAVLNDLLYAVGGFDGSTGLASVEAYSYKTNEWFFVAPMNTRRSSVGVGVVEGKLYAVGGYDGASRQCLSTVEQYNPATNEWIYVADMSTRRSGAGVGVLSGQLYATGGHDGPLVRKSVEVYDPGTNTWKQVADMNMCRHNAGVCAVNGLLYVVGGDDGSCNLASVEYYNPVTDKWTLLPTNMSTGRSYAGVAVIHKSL

T2: KLHL3 full-length protein (residues 1–587) (human, UniProt Q9UH77-1 1-587)
T2 construct: Kelch-like protein 3 (KLHL3), human, NM_017415.2, residues 1-587; also called Kelch-like protein 3; source: Sf21 cells, expressed and purified as a DAC-(TEV protease)KLHL3 fusion protein
T2 sequence (looked up): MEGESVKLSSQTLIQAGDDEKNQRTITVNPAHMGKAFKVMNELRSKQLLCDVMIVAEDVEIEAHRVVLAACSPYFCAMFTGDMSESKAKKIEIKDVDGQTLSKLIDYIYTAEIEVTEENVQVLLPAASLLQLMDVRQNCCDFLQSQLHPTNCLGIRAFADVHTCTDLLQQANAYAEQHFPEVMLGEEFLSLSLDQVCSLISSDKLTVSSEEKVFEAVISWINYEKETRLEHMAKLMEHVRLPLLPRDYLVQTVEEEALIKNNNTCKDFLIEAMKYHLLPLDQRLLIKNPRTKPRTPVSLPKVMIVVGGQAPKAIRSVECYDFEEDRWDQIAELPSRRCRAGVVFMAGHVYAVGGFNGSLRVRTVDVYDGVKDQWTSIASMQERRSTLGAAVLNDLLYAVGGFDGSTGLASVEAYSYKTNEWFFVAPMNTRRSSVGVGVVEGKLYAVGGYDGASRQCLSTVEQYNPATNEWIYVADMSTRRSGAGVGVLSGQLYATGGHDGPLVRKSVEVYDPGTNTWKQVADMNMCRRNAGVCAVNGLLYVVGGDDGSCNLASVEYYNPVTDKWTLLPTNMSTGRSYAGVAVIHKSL

T3: GST–KLHL3^290–587 N529K (human, UniProt Q9UH77-1 290-587, N529K)
T3 construct: KLHL3, human, NM_017415.2, Kelch domain, residues 290-587, with the Gordon's syndrome mutation N529K; Mutation found in patients with Gordon's syndrome; also called KLHL3 N529K; source: E. coli BL21, purified (glutathione–Sepharose); not shown: GST, N-terminal, kept
T3 sequence (looked up): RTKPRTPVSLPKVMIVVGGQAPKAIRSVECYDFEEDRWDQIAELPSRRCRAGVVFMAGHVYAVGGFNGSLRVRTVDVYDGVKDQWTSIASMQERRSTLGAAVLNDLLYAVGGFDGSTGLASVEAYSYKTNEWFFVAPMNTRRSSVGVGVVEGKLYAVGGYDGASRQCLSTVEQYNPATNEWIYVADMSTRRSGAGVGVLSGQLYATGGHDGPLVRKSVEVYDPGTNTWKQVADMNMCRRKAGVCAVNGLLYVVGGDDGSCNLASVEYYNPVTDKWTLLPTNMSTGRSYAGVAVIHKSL


Columns and labels:
GST–KLHL3^290–587 R528H [1] = target: GST–KLHL3^290–587 R528H (Homo sapiens, UniProt Q9UH77, R528H); type: binding
GST–KLHL3^290–587 R528H [2] = target: T1, GST–KLHL3^290–587 R528H; assay: fluorescence polarisation; Kelch protein titrated against 10 nM Lumio-Green-labelled peptide; 25°C; 50 mM Tris/HCl pH 7.5, 150 mM NaCl, 2 mM DTT; one-site specific binding with Hill slope; duplicates, at least 12 points per curve; settings: both partners purified
[3] = target: T2, KLHL3 full-length protein (residues …); assay: as above; settings: both partners purified
GST–KLHL3^290–587 N529K = target: T3, GST–KLHL3^290–587 N529K; assay: as above; settings: both partners purified

Kd (GST–KLHL3^290–587 R528H [2]) [nM] | Kd [3] [nM] | Kd (GST–KLHL3^290–587 N529K) [nM] | Molecule | reduction of binding relative to wild-type KLHL3 (GST–KLHL3^290–587 R528H [1])
– | – | – | CC(C)[C@H](NC(=O)[C@H](CO)NC(=O)[C@@H]1CCCN1C(=O)[C@@H]1CCCN1C(=O)CNC(=O)CNC(=O)CNC(=O)CNC(=O)CNC(=O)[C@@H]1CS[As]2SC[C@H](NC(=O)CNC(=O)[C@@H]3CCCN3C(=O)[C@@H]3CS[As](SC[C@H](N)C(=O)N3)c3c(O)ccc4c3Oc3c(ccc(O)c32)C42OC(=O)c3ccccc32)C(=O)N1)C(=O)N[C@@H](Cc1ccccc1)C(=O)N1CCC[C@H]1C(=O)N1CCC[C@H]1C(=O)N[C@@H](CCC(=O)O)C(=O)N1CCC[C@H]1C(=O)N[C@@H](CCC(=O)O)C(=O)N[C@@H](CCC(=O)O)C(=O)N1CCC[C@H]1C(=O)N[C@@H](CCC(=O)O)C(=O)N[C@@H](C)C(=O)N[C@@H](CC(=O)O)C(=O)N[C@@H](CCC(N)=O)C(=O)N[C@@H](Cc1cnc[nH]1)C(=O)N[C@@H](CCC(N)=O)C(=O)O (stereo partly shown) [WNK4 WT 549–567] (X1-GGGGGPPSVFPPEPEEPEADQHQ-OH) | approximately 10 fold
1930 | 620 | 6600 | GPPSVFPPEPEEPEADQHQ (not fully specified (N-terminus); also: Lumio Green fluorophore on N-terminal linker CCPGCCGGGG, WNK4 acidic degron, residues 549-567; also called WNK4 19-residue peptide; source: synthetic peptide (GL Biochem)) [19-residue WNK4 degron peptide (WNK4 WT 549–567)] | –

Source: PMC4019986, “Structural and biochemical characterization of the KLHL3–WNK kinase interaction important in blood pressure regulation” (Biochemical Journal, 2014)
